The text below walks through data of patent US20240150494A1 (ROCKEFELLER UNIVERSITY, published 2024).

The target in experiment [1] is T1, IgG1, G0 afucosylated glycoform (antibody not named).
T1 construct: also called GO
Nature of the experiment: sandwich ELISA, IgG titrated. A general note: ELISA stands for enzyme-linked immunosorbent assay.

Experiment [2] addresses T2, anti-NP (4-hydroxy-3-nitrophenylacetyl) antibody clone 3B62 IgG1, afucosylated.
T2 construct: In the FcγRIIIA ELISA it stood as an immune complex with NP-BSA (10:1); also called 3B62 IgG1 G2; monomeric 3B62
Kind of experiment: SPR, 1:1 Langmuir global kinetic fit, 256 to 16 nM in 2-fold steps. In general terms: SPR reads the build-up and loss of mass on a sensor chip optically.

For orientation: EC50 (read off the curve) means the concentration at which the effect is half-maximal. Read a low EC50 (read off the curve) as greater potency. One may read the Kd as the free concentration of one partner at which half of the binding sites on the other are occupied at equilibrium, for simple one-to-one binding.

B1: B7 (VHH)
VHH: QVQLQESGGGLVQAGGSLRLSCAASGGISRYKTMGWYRQAPGKEREFVAGITWGGSTYYADSVKGRFTISRDNAKNTVYLQMNSLKPEDTAVYYCSVDGGTYADPYHYYWGQGTQVTVSS
notes: also called clone B7; nanobody B7; not shown: His tag and AviTag of the pET26-b(+) construct
On to B1, for which the “EC50 (read off the curve)” value in experiment [1] was ~0.4 µg/mL. For the same molecule, binding in experiment [2] was characterised by a dissociation constant (Kd) of 3.76 µM.
